Measurements: patent US20140328841A1 (BRIGHAM AND WOMEN S HOSPITAL, published 2014)

Assays:
mouse CEACAM1 [1] = biological target: T1, mouse CEACAM1 (mouse, UniProt P31809 35-521, limits assumed); experiment: flow cytometry dot plot (x: mIgG1 CONTROL, y: FITC). Cells of the 5F4-treated mouse group, isotype control staining for the 5F4 panel above it.
T1 sequence (looked up): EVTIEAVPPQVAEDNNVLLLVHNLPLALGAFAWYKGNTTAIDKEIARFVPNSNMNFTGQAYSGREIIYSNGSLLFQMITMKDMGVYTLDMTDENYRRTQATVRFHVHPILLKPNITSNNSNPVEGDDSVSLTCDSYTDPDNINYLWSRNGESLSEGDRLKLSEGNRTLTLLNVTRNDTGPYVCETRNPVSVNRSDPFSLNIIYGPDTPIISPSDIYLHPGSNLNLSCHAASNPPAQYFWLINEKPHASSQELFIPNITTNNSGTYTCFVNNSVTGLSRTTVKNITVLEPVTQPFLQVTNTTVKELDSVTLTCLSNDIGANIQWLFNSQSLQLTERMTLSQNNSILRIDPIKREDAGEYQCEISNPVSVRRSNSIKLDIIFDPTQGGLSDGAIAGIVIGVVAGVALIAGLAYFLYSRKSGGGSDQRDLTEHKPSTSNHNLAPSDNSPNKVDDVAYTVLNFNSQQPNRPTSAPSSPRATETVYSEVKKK

human CEACAM1 (human) [2] = biological target: human CEACAM1 (human) (UniProt P13688); experiment: flow cytometry dot plot (x: mIgG1 CONTROL, y: FITC). Cells of the MOPC-treated mouse group, isotype control staining for the 5F4 panel above it.
mouse CEACAM1 [3] = biological target: T1, mouse CEACAM1; experiment: flow cytometry, 5F4 staining of lymph node cells of the 5F4-treated mouse group (mouse cells; per the legend no human CEACAM1+ cells present)
human CEACAM1 (human) [4] = biological target: human CEACAM1 (human) (UniProt P13688); experiment: flow cytometry dot plot (x: hCEACAM1 (5F4), y: FITC). Per the legend, axillary lymph node cells of an MOPC-treated Rag2-/- mouse 2 weeks after s.c. AsPc-1 inoculation. Gated events spread from about 10^3 to above 10^4 on the x axis. The panel is marked *.

human CEACAM1 (human), sequence (P13688 35-526): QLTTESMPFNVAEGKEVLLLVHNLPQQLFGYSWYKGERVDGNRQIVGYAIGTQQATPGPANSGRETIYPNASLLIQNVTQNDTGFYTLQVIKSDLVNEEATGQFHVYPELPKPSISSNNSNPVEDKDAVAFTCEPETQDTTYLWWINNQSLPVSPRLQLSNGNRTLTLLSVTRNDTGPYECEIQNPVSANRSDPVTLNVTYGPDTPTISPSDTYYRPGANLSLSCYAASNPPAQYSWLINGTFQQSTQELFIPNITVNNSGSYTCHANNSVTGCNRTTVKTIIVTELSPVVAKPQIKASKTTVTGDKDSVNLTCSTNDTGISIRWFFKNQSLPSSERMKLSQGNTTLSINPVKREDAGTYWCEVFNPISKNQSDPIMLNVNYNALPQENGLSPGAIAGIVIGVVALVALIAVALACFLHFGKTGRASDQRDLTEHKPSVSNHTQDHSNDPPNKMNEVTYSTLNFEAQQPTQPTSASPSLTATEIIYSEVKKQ

In the case of mIgG1 CONTROL (antibody), the number printed in the same gate of the dot plot (mouse CEACAM1 [1]) is reported as 1.27 and the number printed in the same gate of the dot plot (human CEACAM1 (human) [2]) is reported as 0.667.

B1: 5F4 mouse anti-human CEACAM1 monoclonal antibody (hybridoma 5F4/2C6/2H3) (antibody, mouse IgG1, V domains shown)
VH: EVQLVESGGDLVKPGGSLKLACAASGFIFSSHGMSWVRQTPDKRLEWVATISSGGTYTYYPDSVKGRFTISRDNDKNTLYLQMNSLKSEDTAMYYCARHDFDYDAAWFAYWGQGTLVTVSA
VL: QIVLTQSPALMSASPGVKVTMTCSANSSVSYMYWYRQKPRSSPKPWIYLTSNLASGVPARFSGSGSGTSYSLTISSMEAEDAATYYCQQWSSNPPTFGSGTKLEIK
notes: also called 5F4 antibody; 5F4 monoclonal antibody
With B1 the binding result (mouse CEACAM1 [3]) was “no binding” and the number printed in the hCEACAM1 (5F4)-positive gate of the dot plot (human CEACAM1 (human) [4]) was 2.15.
